In patent US20250154283A1 (published 2025):

T1: biotinylated human VWF cysteine knot (CK) domain construct (human, biotin on the in vitro biotinylation tag (residue not stated); one N-glycan)
T1 construct: Disulfide-linked homodimer; also called biotinylated human VWF CK domain; human VWF CK domain construct
T1 chain: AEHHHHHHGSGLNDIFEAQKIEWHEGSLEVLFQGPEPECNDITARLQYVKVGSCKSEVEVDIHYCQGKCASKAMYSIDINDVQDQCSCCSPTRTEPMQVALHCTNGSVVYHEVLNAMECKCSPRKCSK


Molecular target: T1, biotinylated human VWF cysteine knot …
Test: SPR, scFv captured on anti-SV5, pH 7.4
Source text: Briefly, a sensor chip was activated and coupled with an anti-SV5 mouse monoclonal antibody using amine coupling. The soluble scFvs in crude yeast supernatants were printed on the anti-SV5 lawn. […] From the measured association (kₒₙ) and dissociation (koff) rate constants, an apparent equilibrium dissociation constant (Kd=koff/kₒₙ) was estimated. Due to the dimeric state of the CK construct and consequent possibility for simultaneous binding of captured scFv to both monomers in the CK dimer, the SPR setup was expected to overestimate the binding affinity.

| Binder | binding result |
| --- | --- |
| 15244_Lib8_scFv (scFv, not shown: small tags and cut ends) scFv: EVQLVESGGGLVQPGRSLRLSCAASGFTFADYDMHWVRQAPGKGLEWVSATSSHGVTTDYADSVEGRFTISRDNAKNSLYLQMNSLRAEDTAVYYCARGAWSGIAARQYIDYWGQGTLVTVSSSGGSTITSYNVYYTKLSSSGTDIQMTQSPSSLSASVGDRVTITCRASQTIGYWLAWYQQKPGKAPKLLIYDASVPESGVPSRFSGSGSGTDFTLTISSLQPEDVATYYCQQSYSYPLTFGGGTKVEIK | binds |
| Lib6_P3_A8_scFv (scFv, not shown: small tags and cut ends) scFv: EVQLVQSGAEVKKPGASVKVSCKASGYRFTNYDISWVRQAPGQGLEWMGGINPSSGITIYAQKLQGRGTMTTDPSTSTAYMELRSLRSDDTAVYYCARGAAYGDYLDYWGQGTLVTVSSSGGSTITSYNVYYTKLSSSGTESALTQPASVSGSPGQSITISCTGTNLGEKYVSWYQQHPGKAPKLMIYSTSQRPSGVSNRFSGSKSGNTASLTITGLQAEDEADYYCSSYTASSTPGLVFGGGTKLTVL | binds |
| 1675_Lib1_scFv (scFv, not shown: small tags and cut ends) scFv: QVQLVQSGAEVKKPGASVKVSCKVSGVTLTSSAISWVRQAPGKGLEWMGGITPIFGTPIYAQKFQGRVTMTEDTSTDTAYMELSSLKSEDTAVYYCATDYGYPFWAFDIWGQGTMVTVSSSGGSTITSYNVYYTKLSSSGTDIQMTQSPSSVSASVGDRVTITCRASQGIYSALAWYQQKPGKAPKLLIYESSKRPSGVPSRFSGSGSGTDFTLTISSLQPEDFANYYCEQYASSPPTFGGGTKVEIK | binds |
| 7046_Lib8_scFv (scFv, not shown: small tags and cut ends) scFv: EVQLVESGGGLVQPGRSLRLSCAASGFNFHNYDMHWVRQAPGKGLEWVSAISGSGYTADYADSVEGRFTISRDNAKNSLYLQMNSLRAEDTAVYYCAKSHSSGWSSAFDIWGQGTMVTVSSSGGSTITSYNVYYTKLSSSGTDIQMTQSPSSLSASVGDRVTITCRASQTIGYWLAWYQQKPGKAPKLLIYDATNLATGVPSRFSGSGSGTDFTLTISSLQPEDVATYYCQHYNPYSQVTFGGGTKVEIK | binds |
| Lib1_P1_A5_scFv (scFv, not shown: small tags and cut ends) scFv: QVQLVQSGAEVKKPGASVKVSCKVSGDTLSNYAIHWVRQAPGKGLEWMGGINPNAGTTIYAQKFQGRVTMTEDTSTDTAYMELSSLKSEDTAVYYCARDSSSWCPVGYYYYYMDVWGKGTTVTVSSSGGSTITSYNVYYTKLSSSGTDIQMTQSPSSVSASVGDRVTITCRASQSIGDFLAWYQQKPGKAPKLLIYDASHLQTGVPSRFSGSGSGTDFTLTISSLQPEDFANYYCQQTSTIPPTFGGGTKVEIK | binds |
| 5662_Lib8_scFv (scFv, not shown: small tags and cut ends) scFv: EVQLVESGGGLVQPGRSLRLSCAASGFNFHNYDMHWVRQAPGKGLEWVSAIDISGQSTDYADSVEGRFTISRDNAKNSLYLQMNSLRAEDTAVYYCAREGWYGGVFDYWGQGTLVTVSSSGGSTITSYNVYYTKLSSSGTDIQMTQSPSSLSASVGDRVTITCRASQDIANWLAWYQQKPGKAPKLLIYGASESGVGVPSRFSGSGSGTDFTLTISSLQPEDVATYYCQQSLTMKTFGGGTKVEIK | binds |
| 4675_Lib4_scFv (scFv, not shown: small tags and cut ends) scFv: QVQLQESGPGLVKPSQTLSLTCTVSGFSLTSHPEGVNWIRQPPGKGLEWIGYIAHSGTTDYNPSLKSRVTMSVDTSKNQFSLKVNSVTAADTAVYYCARAYGDSDAFDIWGQGTMVTVSSSGGSTITSYNVYYTKLSSSGTEIVMTQSPATLSLSPGERATLSCRASQSIGRNLAWYQQKPGQAPRLLIYGASKRVTGIPARFSGSGSGTDFTLTISSLEPEDFAVYYCQQYSTWPTFGGGTKVEIK | binds |
| Lib4_P2_A11_scFv (scFv, not shown: small tags and cut ends, also called Lib4_P2_All) scFv: QVQLQESGPGLVKPSQTLSLTCTVSGVTFSSYGWSWIRQPPGKGLEWIGYVDTSGSTDYNPSLKSRVTMSVDTSKNQFSLKVNSVTAADTAVYYCARTTYYYDSSGFARGWFDPWGQGTLVTVSSSGGSTITSYNVYYTKLSSSGTEIVMTQSPATLSLSPGERATLSCRASRSISTNLAWYQRKPGQAPRLLIYDTSNRAPGIPARFSGSGSGTDFTLTISSLEPEDFAVYYCLQYDVSPYTFGGGTKVEIK | binds |

Now from value to binder:

| binding result | Binder |
| --- | --- |
| binds | 965_Lib4_scFv (scFv, not shown: small tags and cut ends) scFv: QVQLQESGPGLVKPSQTLSLTCTVSGASFGDNYWSWIRQPPGKGLEWIGYIDTSGSSDYNPSLKSRVTMSVDTSKNQFSLKVNSVTAADTAVYYCARDALGYYYMDVWGKGTTVTVSSSGGSTITSYNVYYTKLSSSGTEIVMTQSPATLSLSPGERATLSCRASQGISGRLAWYQQKPGQAPRLLIYDASARASGIPARFSGSGSGTDFTLTISSLEPEDFAVYYCQQYGTSPYTFGGGTKVEIK |
| binds | 27_Lib4_scFv (scFv, not shown: small tags and cut ends) scFv: QVQLQESGPGLVKPSQTLSLTCTVSGASFGDHYWSWIRQPPGKGLEWIGYIDATGSIDYNPSLKSRVTMSVDTSKNQFSLKVNSVTAADTAVYYCARVASYYYYMDVWGKGTTVTVSSSGGSTITSYNVYYTKLSSSGTEIVMTQSPATLSLSPGERATLSCRASQSITGSYLAWYQQKPGQAPRLLIYGASDRAPGIPARFSGSGSGTDFTLTISSLEPEDFAVYYCQQYGSFPYTFGGGTKVEIK |
| binds | 69_Lib8_scFv (scFv, not shown: small tags and cut ends) scFv: EVQLVESGGGLVQPGRSLRLSCAASAFTFSNYDMHWVRQAPGKGLEWVSAISGSGDTSDYADSVEGRFTISRDNAKNSLYLQMNSLRAEDTAVYYCVRASWYGTFFDYWGQGTLVTVSSSGGSTITSYNVYYTKLSSSGTDIQMTQSPSSLSASVGDRVTITCRASQSVSGWLAWYQQKPGKAPKLLIYGTSTLQSGVPSRFSGSGSGTDFTLTISSLQPEDVATYYCQQSYSAPYTFGGGTKVEIK |
| binds | Lib4_P2_D1_scFv (scFv, not shown: small tags and cut ends) scFv: QVQLVQSGAEVKKPGASVKVSCKVSGDTLSNYAIHWVRQAPGKGLEWMGGINPNAGTTIYAQKFQGRVTMTEDTSTDTAYMELSSLKSEDTAVYYCARDSSSWCPVGYYYYYMDVWGKGTTVTVSSSGGSTITSYNVYYTKLSSSGTDIQMTQSPSSVSASVGDRVTITCRASQSIGDFLAWYQQKPGKAPKLLIYDASHLQTGVPSRFSGSGSGTDFTLTISSLQPEDFANYYCQQTSTIPPTFGGGTKVEIK |
| binds | 76_Lib4_scFv (scFv, not shown: small tags and cut ends) scFv: QVQLQESGPGLVKPSQTLSLTCTVSGVSISNHYWSWIRQPPGKGLEWIGYIDESGSTDYNPSLKSRVTMSVDTSKNQFSLKVNSVTAADTAVYYCARVSWGYYAMDVWGQGTTVTVSSSGGSTITSYNVYYTKLSSSGTEIVMTQSPATLSLSPGERATLSCRASQGVSGHLAWYQQKPGQAPRLLIYETSKRATGIPARFSGSGSGTDFTLTISSLEPEDFAVYYCQQYNDYPLGFGGGTKVEIK |
| binds | Lib1_P1_F10_scFv (scFv, not shown: small tags and cut ends) scFv: QVQLVQSGAEVKKPGASVKVSCKVSGYTFSSSGIHWVRQAPGKGLEWMGGIFPNFGTAIYAQKFQGRVTMTEDTSTDTAYMELSSLKSEDTAVYYCARESDFWSGSFTNWGQGTLVTVSSSGGSTITSYNVYYTKLSSSGTDIQMTQSPSSVSASVGDRVTITCRASRSIGNWLAWYQQKPGKAPKLLIYDAFNRASGVPSRFSGSGSGTDFTLTISSLQPEDFANYYCQQSYSTLPRYSFGGGTKVEIK |
